This passage reports Kd results from patent publication US20210371538A1 (Genmab, published 2021).

For this assay, the target named is T1, CD20 (human, UniProt P11836 1-297, limits assumed).
T1 construct: The KD sentence says only 'CD20'; also called human CD20; B-cell antigen CD20
T1 sequence (looked up): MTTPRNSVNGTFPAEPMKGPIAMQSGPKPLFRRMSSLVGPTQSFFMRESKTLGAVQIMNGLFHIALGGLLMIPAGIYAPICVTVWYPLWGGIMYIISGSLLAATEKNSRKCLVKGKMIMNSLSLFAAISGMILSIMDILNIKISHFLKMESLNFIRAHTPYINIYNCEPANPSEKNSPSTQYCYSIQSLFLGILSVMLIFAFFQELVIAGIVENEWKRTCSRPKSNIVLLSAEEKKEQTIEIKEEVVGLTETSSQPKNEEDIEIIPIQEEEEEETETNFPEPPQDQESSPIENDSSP
As to the kind of experiment: in vitro measurement, method not stated; used as a PK/PD model parameter.

B1: DuoBody-CD3×CD20 (bispecific antibody, human IgG1, kappa, lambda)
heavy 1: not shown
light 1: not shown
heavy 2: EVQLVESGGGLVQPDRSLRLSCAASGFTFHDYAMHWVRQAPGKGLEWVSTISWNSGTIGYADSVKGRFTISRDNAKNSLYLQMNSLRAEDTALYYCAKDIQYGNYYYGMDVWGQGTTVTVSSASTKGPSVFPLAPSSKSTSGGTAALGCLVKDYFPEPVTVSWNSGALTSGVHTFPAVLQSSGLYSLSSVVTVPSSSLGTQTYICNVNHKPSNTKVDKRVEPKSCDKTHTCPPCPAPEFEGGPSVFLFPPKPKDTLMISRTPEVTCVVVAVSHEDPEVKFNWYVDGVEVHNAKTKPREEQYNSTYRVVSVLTVLHQDWLNGKEYKCKVSNKALPAPIEKTISKAKGQPREPQVYTLPPSREEMTKNQVSLTCLVKGFYPSDIAVEWESNGQPENNYKTTPPVLDSDGSFFLYSRLTVDKSRWQQGNVFSCSVMHEALHNHYTQKSLSLSPG
light 2: not shown
notes: Full-length IgG1 bispecific with an inert Fc (L234F, L235E, D265A), made by controlled Fab-arm exchange of IgG1-CD3-FEAL and IgG1-CD20-FEAR; One heavy/light pair for each arm; also called epcoritamab; GEN3013
Molecule B1 yielded a Kd of 5.4 nM.

Usually Kd stands for a measure of binding affinity in units of concentration. High values mean weaker binding, low ones tighter binding.
